Experimental data from patent US20130064788A1 (ELEVEN BIOTHERAPEUTICS, published 2013).
Blank lines part the entries; values can stand above or below the binder they belong to.

B3: IL-17RC extracellular domain (receptor)
chain: LERLVGPQDATHCSPVSLEPWGDEERLRVQFLAQQSLSLAPVTAATARTALSGLSGADGRREERGRGKSWVCLSLGGSGNTEPQKKGLSCRLWDSDILCLPGDIVPAPGPVLAPTHLQTELVLRCQKETDCDLCLRVAVHLAVHGHWEEPEDEEKFGGAADSGVEEPRNASLQAQVVLSFQAYPTARCVLLEVQVPAALVQFGQSVGSVVYDCFEAALGSEVRIWSYTQPRYEKELNHTQQLPDCRGLEVWNSIPSCWALPWLNVSADGDNVHLVLNVSEEQHFGLSLYWNQVQGPPKPRWHKNLTGPQIITLNHTDLVPCLCIQVWPLEPDSVRTNICPFREDPRAHQNLWQAARLQLLTLQSWLLDAPCSLPAEAALCWRAPGGDPCQPLVPPLSWENVTVDKVLEFPLLKGHPNLCVQVNSSEKLQLQECLWADSLGPLKDDVLLLETRGPQDNRSLCALEPSGCTSLPSKASTRAARLGEYLLQDLQSGQCLQLWDDDLGALWACPMDKYIHKR
notes: Expressed in 293S GnTI- cells with and without a C-terminal BirA tag; An additional C-terminal Fc tag was cleaved by 3C protease

Experiments:
[1] = target: T1, human IL-17RA extracellular domain (ECD) (human, UniProt Q96F46 32-317); test: SPR, Biacore T100
T1 construct: For SPR it was made with and without a C-terminal BirA ligase tag: the biotinylated form was immobilised and the other was injected; also called IL-17RA ECD; IL-17RA ectodomain
T1 sequence: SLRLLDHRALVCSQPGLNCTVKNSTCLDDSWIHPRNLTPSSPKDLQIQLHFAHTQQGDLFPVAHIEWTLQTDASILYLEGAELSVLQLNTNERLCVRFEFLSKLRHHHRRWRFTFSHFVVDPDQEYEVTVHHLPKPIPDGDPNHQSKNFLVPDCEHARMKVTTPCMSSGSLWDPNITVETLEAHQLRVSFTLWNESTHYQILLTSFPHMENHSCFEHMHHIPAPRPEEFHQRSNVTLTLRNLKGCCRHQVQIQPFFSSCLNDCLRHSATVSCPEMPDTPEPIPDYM
Method: (§1) IL-17RA has been implicated in IL-17E (also known as IL-25) signaling together with IL-17RB (23). IL-25 promotes Th2 inflammatory responses and shares approximately ˜20% identity with IL-17A and IL-17F. […] We hypothesized that IL-17RA may only bind IL-25 once IL-25 is captured by IL-17RB. To test this hypothesis, we immobilized IL-17RB on an SPR chip, captured IL-25 and measured the affinity of IL-17RA for the IL-17RB-IL-25 complex. […] At concentrations up to 50 μM, no interaction could be observed between IL-17RA and IL-25, or between the IL-17RB-IL-25 complex and a second IL-17RB molecule.
(§2) Binding affinities were calculated via surface plasmon resonance (SPR) on a BIACORE® T100 (GE Healthcare). C-terminally biotinylated IL-17 receptors were coupled to immobilized streptavidin on either an SA or CM4-sensor chip (GE Healthcare). An irrelevant, biotinylated protein was captured at equivalent immobilization densities to control flow cells. To measure the second receptor binding interaction, the cytokine was first captured to the immobilized receptor, followed by the second receptor injection. Low coupling densities (200-400 RU) and excess cytokine concentrations were used to optimize the number of cytokine homodimers bound to a single receptor. […] Data was analyzed using BIACORE® T100 evaluation software Version 2.0 (GE Healthcare). […]

[2] = target: T1, human IL-17RA extracellular domain (ECD); test: plate binding assay to the soluble extracellular domain of IL-17RA
[3] = target: T2, pre-assembled IL-17RC-IL-17A complex (IL-17A captured by immobilised IL-17RC) (human, UniProt Q8NAC3 21-538; Q16552 25-155, C-terminal biotin on BirA tag); test: SPR; second receptor injected over IL-17A captured by immobilised IL-17RC
T2 construct: One receptor and one IL-17A dimer on the SPR chip; also called existing IL-17RC-IL-17A complex
T2 sequence 1: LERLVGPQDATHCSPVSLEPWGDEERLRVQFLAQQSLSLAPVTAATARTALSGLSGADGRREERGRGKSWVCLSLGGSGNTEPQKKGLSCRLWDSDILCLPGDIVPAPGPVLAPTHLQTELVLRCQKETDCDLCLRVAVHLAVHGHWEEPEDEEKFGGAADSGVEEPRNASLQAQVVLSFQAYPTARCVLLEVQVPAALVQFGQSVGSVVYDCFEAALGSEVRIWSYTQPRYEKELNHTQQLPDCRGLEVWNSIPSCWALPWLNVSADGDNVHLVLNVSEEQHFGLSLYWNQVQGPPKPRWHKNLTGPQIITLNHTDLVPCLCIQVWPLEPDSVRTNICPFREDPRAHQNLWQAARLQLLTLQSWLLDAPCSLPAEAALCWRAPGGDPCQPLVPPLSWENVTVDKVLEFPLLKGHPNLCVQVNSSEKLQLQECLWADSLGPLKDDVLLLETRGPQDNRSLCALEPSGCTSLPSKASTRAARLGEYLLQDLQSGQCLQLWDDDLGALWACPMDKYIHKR
T2 sequence 2: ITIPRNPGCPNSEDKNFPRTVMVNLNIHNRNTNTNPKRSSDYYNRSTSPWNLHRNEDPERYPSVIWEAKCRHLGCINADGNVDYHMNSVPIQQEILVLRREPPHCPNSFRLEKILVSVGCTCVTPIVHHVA
From the text: (§3) Whilst others have reported the binding affinities of IL-17RA and IL-17RC for IL-17A and IL-17F (7, 22), we considered it pertinent to assess the binding affinity of the second receptor-binding site. The strategy was to immobilize one receptor on the SPR chip at a low coupling density in order to minimize possible homo-dimerization (e.g. cross-linking) of the receptors on the chip. The dimeric IL-17 cytokine was then captured by this receptor so that each receptor would be bound to one dimeric IL-17 ligand, leaving an exposed and accessible second receptor-binding site. The second receptor was subsequently passed over the preformed receptor-cytokine complexes to measure the affinity of the second receptor-binding event. In this fashion, the complex was assembled in a stepwise manner and each of the binding affinities was measured (FIG. 3).
(§4) Binding affinities were calculated via surface plasmon resonance (SPR) on a BIACORE® T100 (GE Healthcare). C-terminally biotinylated IL-17 receptors were coupled to immobilized streptavidin on either an SA or CM4-sensor chip (GE Healthcare). An irrelevant, biotinylated protein was captured at equivalent immobilization densities to control flow cells. […] Data was analyzed using BIACORE® T100 evaluation software Version 2.0 (GE Healthcare). […]

[4] = target: T3, pre-assembled IL-17RB-IL-25 complex (IL-25 captured by immobilised IL-17RB) (human, UniProt Q9NRM6 18-292; Q9H293 33-177, C-terminal biotin on BirA tag); test: SPR, Biacore T100; second receptor injected over IL-25 captured by immobilised IL-17RB
T3 construct: One receptor and one IL-25 dimer on the SPR chip
T3 sequence 1: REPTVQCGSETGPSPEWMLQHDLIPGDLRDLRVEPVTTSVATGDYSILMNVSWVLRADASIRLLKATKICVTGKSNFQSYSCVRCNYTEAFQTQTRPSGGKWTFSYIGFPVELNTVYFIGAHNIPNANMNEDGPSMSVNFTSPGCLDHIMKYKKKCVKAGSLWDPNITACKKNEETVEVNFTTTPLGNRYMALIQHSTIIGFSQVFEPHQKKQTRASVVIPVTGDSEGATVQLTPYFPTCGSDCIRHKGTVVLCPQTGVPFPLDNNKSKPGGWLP
T3 sequence 2: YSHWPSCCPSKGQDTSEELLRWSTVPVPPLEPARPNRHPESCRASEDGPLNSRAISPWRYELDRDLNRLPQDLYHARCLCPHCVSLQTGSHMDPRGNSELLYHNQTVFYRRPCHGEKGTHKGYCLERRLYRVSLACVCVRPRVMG
Method: as §1, §2

[5] = target: T1, human IL-17RA extracellular domain (ECD); test: SPR, Biacore T100; biotinylated receptor on streptavidin chip, cytokine injected
From the text: as §3, §4

[6] = target: B3; test: as above
From the text: as §3, §4

B1: IL-25 (IL-17E) (ligand)
chain: YSHWPSCCPSKGQDTSEELLRWSTVPVPPLEPARPNRHPESCRASEDGPLNSRAISPWRYELDRDLNRLPQDLYHARCLCPHCVSLQTGSHMDPRGNSELLYHNQTVFYRRPCHGEKGTHKGYCLERRLYRVSLACVCVRPRVMG
notes: Expressed by High Five cells with a C-terminal hexa-His tag; It is treated as a dimeric cytokine in the SPR scheme; not shown: C-terminal hexa-His tag
binding result [1]: no binding (tested: up to 50 µM)

B2: mutant single-chain IL-17A (R47E, S65K subunit - (G4S)6 linker - N89A, C-terminally truncated subunit - His tag) (designed binder)
chain: GITIPRNPGCPNSEDKNFPRTVMVNLNIHNRNTNTNPKRSSDYYNESTSPWNLHRNEDPERYPKVIWEAKCRHLGCINADGNVDYHMNSVPIQQEILVLRREPPHCPNSFRLEKILVSVGCTCVTPIVHHVASGGGGSGGGGSGGGGSGGGGSGGGGSGGGGSGITIPRNPGCPNSEDKNFPRTVMVNLNIHNRNTNTNPKRSSDYYNRSTSPWNLHRNEDPERYPSVIWEAKCRHLGCINADGNVDYHMASVPIQQEILVLRREPPHCPNSFRLEKILVSVGCTCVTPASHHHHHH
notes: also called sc17A-DN; mutant single-chain IL-17A protein
affinity relative to wild-type IL-17A (factor) [2]: ≤ 4 fold

Binder: B3
Kd [3]: 8000 nM

Continued, values first:

binding result [4]: no binding (tested: up to 50 µM)
B4: IL-17RB extracellular domain (receptor)
chain: REPTVQCGSETGPSPEWMLQHDLIPGDLRDLRVEPVTTSVATGDYSILMNVSWVLRADASIRLLKATKICVTGKSNFQSYSCVRCNYTEAFQTQTRPSGGKWTFSYIGFPVELNTVYFIGAHNIPNANMNEDGPSMSVNFTSPGCLDHIMKYKKKCVKAGSLWDPNITACKKNEETVEVNFTTTPLGNRYMALIQHSTIIGFSQVFEPHQKKQTRASVVIPVTGDSEGATVQLTPYFPTCGSDCIRHKGTVVLCPQTGVPFPLDNNKSKPGGWLP
notes: Expressed with and without a C-terminal BirA tag

Kd [5]: 292 nM | Kd [6]: 4.4 nM
B5: IL-17F homodimer (ligand, not shown: small tags and cut ends)
chain: RKIPKVGHTFFQKPESCPPVPGGSMKLDIGIINENQRVSMSRNIESRSTSPWNYTVTWDPNRYPSEVVQAQCRNLGCINAQGKEDISMNSVPIQQETLVVRRKHQGCSVSFQLEKVLVTVGCTCVTPVIHHVQ
notes: Printed as full length IL-17F with a C-terminal hexa-His tag, secreted by High Five insect cells; It is a disulfide-linked homodimer; also called IL-17F/F
